In the supplement of paper PMC11316812:
± gives the standard deviation of the averaged measurements.

Legend:
hTERT-HMEC = assay: percentage of EdU-negative (G0-arrested) nuclei per well, 72 h; higher = more G0 arrest; conditions: reference: sequence is the full UniProt precursor, the tested protein was the secreted form or ectodomain
MCF7 = assay: as above; conditions: reference: sequence is the full UniProt precursor, the tested protein was the secreted form or ectodomain
[1] = protein concentration 0.0225 µM
[2] = protein concentration 0.0257143 µM
[3] = protein concentration 0.257143 µM
[4] = protein concentration 0.03125 µM
[5] = protein concentration 0.3125 µM
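Further: secreted proteins added to cultured cells, EdU pulse at the end, nuclei found by Hoechst imaging, EdU status from nuclear versus surrounding ring intensity ratio, PBS as neutral control.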

Row | Sequence | percentage of EdU-negative (hTERT-HMEC; [1]) [%] | percentage of EdU-negative (hTERT-HMEC; protein concentration 0.225 µM) [%] | percentage of EdU-negative (MCF7; [1]) [%] | percentage of EdU-negative (MCF7; protein concentration 0.225 µM) [%] | percentage of EdU-negative (hTERT-HMEC; [4]) [%] | percentage of EdU-negative (hTERT-HMEC; [5]) [%] | percentage of EdU-negative (MCF7; [4]) [%] | percentage of EdU-negative (MCF7; [5]) [%] | also measured
1 | MALRRLGAALLLLPLLAAVEETLMDSTTATAELGWMVHPPSGWEEVSGYDENMNTIRTYQVCNVFESSQNNWLRTKFIRRRGAHRIHVEMKFSVRDCSSIPSVPGSCKETFNLYYYEADFDSATKTFPNWMENPWVKVDTIAADESFSQVDLGGRVMKINTEVRSFGPVSRSGFYLAFQDYGGCMSLIAVRVFYRKCPRIIQNGAIFQETLSGAESTSLVAARGSCIANAEEVDVPIKLYCNGDGEWLVPIGRCMCKAGFEAVENGTVCRGCPSGTFKANQGDEACTHCPINSRTTSEGATNCVCRNGYYRADLDPLDMPCTTIPSAPQAVISSVNETSLMLEWTPPRDSGGREDLVYNIICKSCGSGRGACTRCGDNVQYAPRQLGLTEPRIYISDLLAHTQYTFEIQAVNGVTDQSPFSPQFASVNITTNQAAPSAVSIMHQVSRTVDSITLSWSQPDQPNGVILDYELQYYEKELSEYNATAIKSPTNTVTVQGLKAGAIYVFQVRARTVAGYGRYSGKMYFQTMTEAEYQTSIQEKLPLIIGSSAAGLVFLIAVVVIAIVCNRRGFERADSEYTDKLQHYTSGHMTPGMKIYIDPFTYEDPNEAVREFAKEIDISCVKIEQVIGAGEFGEVCSGHLKLPGKREIFVAIKTLKSGYTEKQRRDFLSEASIMGQFDHPNVIHLEGVVTKSTPVMIITEFMENGSLDSFLRQNDGQFTVIQLVGMLRGIAAGMKYLADMNYVHRDLAARNILVNSNLVCKVSDFGLSRFLEDDTSDPTYTSALGGKIPIRWTAPEAIQYRKFTSASDVWSYGIVMWEVMSYGERPYWDMTNQDVINAIEQDYRLPPPMDCPSALHQLMLDCWQKDRNHRPKFGQIVNTLDKMIRNPNSLKAMAPLSSGINLPLLDRTIPDYTSFNTVDEWLEAIKMGQYKESFANAGFTSFDVVSQMMMEDILRVGVTLAGHQKKILNSIQVMRAQMNQIQSVEGQPLARRPRATGRTKRCQPRDVTKKTCNSNDGKKKGMGKKKTDPGRGREIQGIFFKEDSHKESNDCSCGG [Q6NVW1] | 5.5 ± 0.22 | 8.19 ± 1 | 25.8 ± 2.3 | 26.5 ± 1 | – | – | – | – | –
2 | MALRRPPRLRLCARLPDFFLLLLFRGCLIGAVNLKSSNRTPVVQEFESVELSCIITDSQTSDPRIEWKKIQDEQTTYVFFDNKIQGDLAGRAEILGKTSLKIWNVTRRDSALYRCEVVARNDRKEIDEIVIELTVQVKPVTPVCRVPKAVPVGKMATLHCQESEGHPRPHYSWYRNDVPLPTDSRANPRFRNSSFHLNSETGTLVFTAVHKDDSGQYYCIASNDAGSARCEEQEMEVYDLNIGGIIGGVLVVLAVLALITLGICCAYRRGYFINNKQDGESYKNPGKPDGVNYIRTDEEGDFRHKSSFVI [Q9BX67] | 4.86 ± 0.27 | 5.13 ± 0.74 | 21.3 ± 0.85 | 24.5 ± 2.1 | – | – | – | – | –
3 | MALRRSMGRPGLPPLPLPPPPRLGLLLAALASLLLPESAAAGLKLMGAPVKLTVSQGQPVKLNCSVEGMEEPDIQWVKDGAVVQNLDQLYIPVSEQHWIGFLSLKSVERSDAGRYWCQVEDGGETEISQPVWLTVEGVPFFTVEPKDLAVPPNAPFQLSCEAVGPPEPVTIVWWRGTTKIGGPAPSPSVLNVTGVTQSTMFSCEAHNLKGLASSRTATVHLQALPAAPFNITVTKLSSSNASVAWMPGADGRALLQSCTVQVTQAPGGWEVLAVVVPVPPFTCLLRDLVPATNYSLRVRCANALGPSPYADWVPFQTKGLAPASAPQNLHAIRTDSGLILEWEEVIPEAPLEGPLGPYKLSWVQDNGTQDELTVEGTRANLTGWDPQKDLIVRVCVSNAVGCGPWSQPLVVSSHDRAGQQGPPHSRTSWVPVVLGVLTALVTAAALALILLRKRRKETRFGQAFDSVMARGEPAVHFRAARSFNRERPERIEATLDSLGISDELKEKLEDVLIPEQQFTLGRMLGKGEFGSVREAQLKQEDGSFVKVAVKMLKADIIASSDIEEFLREAACMKEFDHPHVAKLVGVSLRSRAKGRLPIPMVILPFMKHGDLHAFLLASRIGENPFNLPLQTLIRFMVDIACGMEYLSSRNFIHRDLAARNCMLAEDMTVCVADFGLSRKIYSGDYYRQGCASKLPVKWLALESLADNLYTVQSDVWAFGVTMWEIMTRGQTPYAGIENAEIYNYLIGGNRLKQPPECMEDVYDLMYQCWSADPKQRPSFTCLRMELENILGQLSVLSASQDPLYINIERAEEPTAGGSLELPGRDQPYSGAGDGSGMGAVGGTPSDCRYILTPGGLAEQPGQAEHQPESPLNETQRLLLLQQGLLPHSSC | – | – | – | – | – | – | – | – | percentage of EdU-negative (hTERT-HMEC; [2]): 3.99 ± 0.11%; percentage of EdU-negative (hTERT-HMEC; [3]): 5.87 ± 0.091%; percentage of EdU-negative (MCF7; [2]): 25.83 ± 0.093%; percentage of EdU-negative (MCF7; [3]): 27.3 ± 1.4%
4 | MALRVVRSVRALLCTLRAVPSPAAPCPPRPWQLGVGAVRTLRTGPALLSVRKFTEKHEWVTTENGIGTVGISNFAQEALGDVVYCSLPEVGTKLNKQDEFGALESVKAASELYSPLSGEVTEINEALAENPGLVNKSCYEDGWLIKMTLSNPSELDELMSEEAYEKYIKSIEE | 4.5 ± 0.0069 | 10.4 ± 2.3 | 25.5 ± 2.2 | 26.3 ± 3.4 | – | – | – | – | –
5 | MALSFSLLMAVLVLSYKSICSLGCDLPQTHSLGNRRALILLAQMGRISHFSCLKDRHDFGFPEEEFDGHQFQKAQAISVLHEMIQQTFNLFSTEDSSAAWEQSLLEKFSTELYQQLNDLEACVIQEVGVEETPLMNEDSILAVRKYFQRITLYLTEKKYSPCAWEVVRAEIMRSLSFSTNLQKRLRRKD | – | – | – | – | 9.16 ± 2.3 | 13.8 ± 2.7 | 40.1 ± 1.1 | 46.8 ± 1.5 | –
6 | MALSFSLLMAVLVLSYKSICSLGCDLPQTHSLGNRRALILLAQMGRISHFSCLKDRYDFGFPQEVFDGNQFQKAQAISAFHEMIQQTFNLFSTKDSSAAWDETLLDKFYIELFQQLNDLEACVTQEVGVEEIALMNEDSILAVRKYFQRITLYLMGKKYSPCAWEVVRAEIMRSFSFSTNLQKGLRRKD | – | – | – | – | 11.7 ± 1.5 | 18.9 ± 0.54 | 47.8 ± 1.4 | 49.2 ± 3.4 | –
